# The DeepSol protein solubility set
# Test: soluble on expression in E. coli; label from the status in PepcDB or PDB records
row,Sequence,soluble on expression in E. coli
1,MDNTEDVIKEFMQFKVRMEGSVNGHYFEIEGEGEGKPYEGTQTAKLQVTKGGPLPFAWDILSPQFQYGSKAYVKHPADIPDYMKLSFPEGFTWERSMNFEDGGVVEVQQDSSLQDGTFIYKVKFKGVNFPADGPVMQKKTAGWEPSTEKLYPQDGVLKGEISHALKLKDGGHYTCDFKTVYKAKKPVQLPGNHYVDSKLDITNHNEDYTVVEQYEHAEARHSGSQ,soluble
2,MDPIASVLEKVKSFTKSSQDLVSRHFGFHENPSRLNPIDILKRLQRETFSDLMKLRERQEKVERIISSQKLSKGGPFQETSTHVRGEVDVLGAILLMGNTDEESFNGLNKEGVRPGLLSRFVFETSLRETDRLVAELVAGYNGAGSHRDFLGGELSLAKVFYKADINDWFSAIAIPVGAHFRDIEASTVSSYQGMSLTEVSELGPPLLSQHNGSAIGLTFRKSNITASLAQSMSNVEVEQGLTAPNRCFRTFGQVTCHILRSLKLSLLGCHQVLTSSSNLHSVGAITVPVSFLRRHTATEPEPSAPPLEMSRNMNHVSSSSIALKLDSLMDESTKLGGWIEIQNSREKQVKWSVSITDNPEDEVGWGMSVGGVVDGSRNHDQFQVESYLKFNIGDRFRLSPCLVYHTNSDGRTIGLMLKSHWSL,soluble
3,MDPKFLVVEIDSKERALQLVQVMLENGFARFMLLDDLSRHPTLDRIQREEPRISRDELRETASSPVTFETRHSPYPVHEQKVLFPSFSQVSNSMVTSTGIRQEASSVGVGPIEDDDIVEEEEEEDIRLTSKPCVKRRYDHHAEEQEYRDQLMSLLSGEPEIVPIGVNSNDEPSGSNSDSAAKKAKSVGDYHECQLCGVRVKTPRSGRWNLQMHVIALHCVGRQYKCKQCDYLDYRKSTMRKHTVSQHGSDIPPHNITDNIMKAEWHAAMIKCFPEFAHRTGFLN,not soluble
4,MDPSENVFKYETAYDLLVRLGAERLFLRTCLSILDPVLELHPGKCYEIDGDLGVGKTQICYSFAAKFLQTKKTAKMGWIGATPLRTDHLLLHIEHFGNQTNEDILDRIVCKRVEKIAELQDSLTRFLDTINLQLVIVENIDAILHDTVYHKEMGRSMQSDVVERIRKLTKLEITVILTNHITHWRGYPAPALGAFWSSQINNRFFIEKRNDDSDIRIVSAMKGEQDDGMNRIEFKIGDRGLKAVE,not soluble
5,MDPSMYPGASATYLSYPQQNASQDYLGAYAAQTTTTTRNTANGSTSSDHLLGDPSSSCSPRETSPSTTSLVLTIRLLMQGKEVGSIIGKKGDQIKKIREESGAKINISDGSCPERIVTITGTLGVIGKAFNMVCNKFEEDMLLLPNSVPKPPITMRVIVPATQCGSLIGKGGSKIKDIREATGASIQVASEMLPHSTERAVTLSGTADAINLATSLKIPGSTKRLHNHIPPKTNVQPIGNRHVSGYNCRTTTTGTGSTATRRGSTYGWRTGTGVQVQQQLVTNALLQQHQFAAVQQELAARAALFNQQLMMPGQQQQASQAQEVYLGQHGLIYTANGVQLGGQDNSKAMEAGAAAAAAAQWQGYDMAAMQQQQQQQQQLLNQYALNQSMLIGAPFMKGGPTPPGTTSGKATSSGASAQGAATSSARFHPY,not soluble
6,MDPSQQTPQETVVAPVAPLLEDQLELDMKHCFENLIVIDVGANLTNKKYSRDLDSVVQRARDAGVQKLMVHGTSVKSSKEALRLSRIYPDIIYSTAGIHPHDSKSIVEEPATWFDLEHIAQAQECVAIGPCGLDYQRDFSEPDAQKQIFAKQLHLAIRLNKPLLIHERSAQLDLLEILDKFENLPPVIIRGFMGTAEEALKYLDRRFYISLTGYLCKDKSDTGVRRLLEDGTLPLDRLLVETDAPFMYPNTRASKLPQHVKTGITERSLLYLHRYCTFQRNEPCSLPAIVEMIAAFMKKSPDEVALATAFNALKLFGLSLEHHHHHH,soluble
7,MDQTYAEIENIYTLSPIIATTPKRYDVQYIQQKSRKNRNLIDHFDSRLPIEYRYPKKNSSATSSLSSAASRSLASKSLASSSSGYSSLGSTSSITTVFNGLSPFRSKSKNEEFDEQKAPSMRISEDVASIVIGENNSEVEEAVIDEVPEIKKRACCIECREKEIRQELDLESHQYANLQSLQKPQDPYVFLMTSMLTNLQKEDGGRQVVKVQQKIEKVLRLKPREPFNVEQKLVFDRQISTFASDVTIRLRAVSDAAPETYRDVSARFCEALHPGTPNSKGLKNIVKGVKNLLNF,not soluble
